Consider two compounds from paper PMC9126943, “ADAMTS4-specific MR probe to assess aortic aneurysms in vivo using synthetic peptide libraries” (Nature Communications, 2022).

Data set [1] in a line: Solubility (statement, no method). Particulars: statement in the discussion. It is filed as physicochemical.
The nature of data set [2]: Biodistribution and blood clearance by ICP-MS of Gd.
A further data set has as its target T1, ADAMTS4 (Homo sapiens, UniProt O75173).
T1 construct: This is consistent with the recombinant proteins, we used in the screening process; purchased BioTeZ Berlin-Buch GmbH 30 400 102
T1 sequence (O75173 213-685): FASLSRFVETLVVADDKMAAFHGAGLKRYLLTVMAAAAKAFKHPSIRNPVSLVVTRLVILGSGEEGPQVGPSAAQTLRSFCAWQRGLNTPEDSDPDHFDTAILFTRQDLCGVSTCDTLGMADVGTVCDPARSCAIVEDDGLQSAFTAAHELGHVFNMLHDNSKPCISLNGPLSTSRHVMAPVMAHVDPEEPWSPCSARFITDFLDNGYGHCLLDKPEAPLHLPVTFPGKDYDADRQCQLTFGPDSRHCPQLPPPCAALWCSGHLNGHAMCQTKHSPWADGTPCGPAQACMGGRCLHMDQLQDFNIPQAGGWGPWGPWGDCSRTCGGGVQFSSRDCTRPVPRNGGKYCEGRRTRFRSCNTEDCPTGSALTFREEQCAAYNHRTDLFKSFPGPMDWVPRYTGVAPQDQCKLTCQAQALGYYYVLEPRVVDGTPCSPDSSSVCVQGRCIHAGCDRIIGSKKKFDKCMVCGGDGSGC
In words: MST instrument, ligand-dependent fluorescence change, Cy5-labeled peptides vs ADAMTS4 (incl. alanine scan). It is filed as binding. Particulars: Cy5-labeled peptide 3 nM, 25 °C, n = 3. As for the experimental part:
Microscale thermophoresis (MST) was performed on a Monolith Pico (NanoTemper, Munich, Germany). The Cy5-labeled peptides were diluted into the MST buffer (150 mM NaCl, 50 mM TRIS-HCl, 5 mM CaCl2, and Tween-20) to reach a dilution of 6 nM. ADAMTS4, ADAMTS5, and ADAMTS1 were directly used with the supplied concentration. For ADAMTS4, the starting concentration was 4.96 µM, while for ADAMTS1 it was 4.88 µM and for ADAMTS5 it was 2.46 µM. […] 20 µl of the protein solutions were transferred into a PCR tube. 10 µl of this first vial was transferred into a second vial and mixed by pipetting with 10 µl of the MST buffer. The dilution series was continued 14 times. From tube 16, 10 µl were removed. Into all 16 tubes, 10 µl of the respective peptide solution were added and mixed by pipetting. The samples were incubated for 20 min and subsequently transferred to premium capillaries (NanoTemper, Munich, Germany). The capillaries were transferred into the Monolith tray and measured with 10% excitation power on the pico-red excitation on high MST power at 25 °C. Analysis was performed with MO.Affinity Analysis v3.0.1 (NanoTemper, Munich, Germany) and Origin 2022 (OriginLab Corporation, Northampton, MA). […] We checked for ADAMTS4 and the ADAMTS4-specific-Cy5-labeled probe via a saturation test for specifying the ligand-dependent fluorescence change. Therefore, the three highest ligand concentrations and the three lowest ligand concentrations of the measurement were used and centrifuged for 15 min at 16060 x g at 20 °C. Of each concentration, 7 µl were picked and mixed with 7 µl of a 10 M urea solution each. The samples were heated at 95 °C for 5 min and measured in the MST. […] Each measurement was repeated three times independently and the binding constant was calculated by merging all three measurements. […] The data were normalized using MO Affinity Analysis v3.0.1 and the fraction bound [−] was shown. […] Therefore, the percentage variance of the values to the average was plotted.
All measurements were performed with 10% LED power, high MST power and at 25 °C. The ligand dependent fluorescence change was used for determining the binding. […] The concentrations of the peptide were kept constant (3 nM in the measurement), while the proteins were diluted in the same manner as for ADAMTS4. […] The Cy5-labeled peptides (3 nM in the measurement) were kept constant, while ADAMTS4 was diluted in the same manner for each peptide (n=3 biologically independent measurements for each peptide; the data are presented as mean values ± SD). […] MST: microscale thermophoresis; nM: nanomolar; His: L-histidine; LED: light-emitting diode; n/a: not available; KD: binding constant.

The mark [3] stands for this setting: male ApoE−/− mice, i.v., n = 3 per time point.

Where a SMILES comes first, the peptide text is derived from it. Bridges are numbered along the chain shown (N, C = ends). The star is where a group is joined. Cy5(nonsulfonated) = CN1C(=CC=CC=CC2=[N+](CCCCCC(=O)*)c3ccccc3C2(C)C)C(C)(C)c2ccccc21; DOTA = O=C(O)CN1CCN(CC(=O)O)CCN(CC(=O)*)CCN(CC(=O)O)CC1

With `N=C(N)NCCC[C@@H]1NC(=O)[C@H](CCCNC(=N)N)NC(=O)[C@H](CO)NC(=O)[C@@H](N)CSSC[C@@H](C(=O)N[C@@H](CO)C(=O)NCC(=O)NCC(=O)N[C@@H](CO)C(=O)NCC(=O)NCC(=O)N[C@@H](CCCCNC(=O)CN2CCN(CC(=O)O)CCN(CC(=O)O)CCN(CC(=O)O)CC2)C(=O)NCC(N)=O)NC(=O)CNC1=O` (Gd complex, metal not drawn) [ADAMTS4-specific probe] (H-CSRRGCSGGSGGK(DOTA)G-NH2; disulfide 1-6), the solubility entry in data set [1] is listed as “high solubility”. In addition, the “time of highest aortic uptake after intravenous injection” value in data set [2] (ApoE−/− mice) came to 15 min. The blood clearance result in data set [2] (ApoE−/− mice, i.v., over 120 min) is “rapid blood clearance”. Moreover, in data set [2] (setting [3]), the “Gd levels in kidneys and urine” value was “Higher levels of Gd”; the “gadolinium uptake in liver, lung, spleen, heart and muscle” value was “low gadolinium uptake”.

As to `C[N+]1=C(C=CC=CC=C2N(CCCCCC(=O)NCCCC[C@H](NC(=O)CNC(=O)CNC(=O)[C@H](CO)NC(=O)CNC(=O)CNC(=O)[C@H](CO)NC(=O)[C@@H]3CSSC[C@H](N)C(=O)N[C@@H](CO)C(=O)N[C@@H](CCCNC(=N)N)C(=O)N[C@@H](CCCNC(=N)N)C(=O)NCC(=O)N3)C(=O)NCC(N)=O)c3ccccc3C2(C)C)C(C)(C)c2ccccc21` [Cy5-labeled probe] (H-CSRRGCSGGSGGK(Cy5(nonsulfonated))G-NH2; disulfide 1-6; N-terminus and C-terminus assumed), at ADAMTS4, the “binding to ADAMTS4 (ligand-dependent fluorescence change), in words” value is reported as “a ligand dependent fluorescence change occurs”.
